The results in this text go back to publication PMC4683529, “Cancer associated missense mutations in BAP1 catalytic domain induce amyloidogenic aggregation: A new insight in enzymatic inactivation” (Scientific Reports, 2015).

This data set deals with the molecule itself. Briefly: ultracentrifugation of heated protein and dot blot of the pellet with A11 and OC antibodies; 7 uM protein heated at 37 °C for 1 h, then 14 h at 25 °C; 1,00,000 x g for 60 min (2 h for OC).

Substitutions are numbered along the chain they refer to. Names and notes keep the numbering of the source.

B1: BAP1 catalytic domain (1–240), wild type (domain or fragment, human, UniProt Q92560 1-240, looked up)
chain: MNKGWLELESDPGLFTLLVEDFGVKGVQVEEIYDLQSKCQGPVYGFIFLFKWIEERRSRRKVSTLVDDTSVIDDDIVNNMFFAHQLIPNSCATHALLSVLLNCSSVDLGPTLSRMKDFTKGFSPESKGYAIGNAPELAKAHNSHARPEPRHLPEKQNGLSAVRTMEAFHFVSYVPITGRLFELDGLKVYPIDHGPWGEDEEWTDKARRVIMERIGLATAGEPYHDIRFNLMAVVPDRRIK
notes: BRCA1 associated protein 1 (BAP1), human, N-terminal catalytic (UCH) domain, residues 1-240, subcloned into pGEX-6P-1 from Flag-HA-BAP1; also called WT 240; BAP1 (1–240); source: E. coli Rosetta 2, purified (standard GST purification protocol)
On to B1, for which the binding result is “binds”.

B2: BAP1 catalytic domain (1–240) F81V (domain or fragment, human, UniProt Q92560 1-240, looked up)
chain: B1 chain with F81V
notes: BAP1, human, catalytic domain residues 1-240 with the cancer-associated mutation F81V; source: E. coli Rosetta 2, purified (standard GST purification protocol)
For the protein B2, the binding result is “binds”.
